From the supplement of paper PMC10724198
± gives the standard deviation of the averaged measurements.

The sequences below were run on Saccharomyces cerevisiae (assay: protein stability index of tFT-peptide fusion (C-terminal peptide) (PSI (0-1 scale)); higher = more stable (slower turnover)). Settings: genetic background: wild type; temperature: 30 C.
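Note: PSI is a weighted mean of sequencing reads over stability bins, variants kept only with over 10 reads, mCherry proximal and sfGFP distal, peptide attached via GGGS linker.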

| Sequence | protein stability index |
| --- | --- |
| LFLCSGWVACWW | 0.498 ± 0.013 |
| LFLGLLLMNDWL | 0.774 ± 0.096 |
| LFLLPPLLPLPP | 0.7361 ± 0.00058 |
| LFLPYLPPRPLL | 0.7642 ± 0.0064 |
| LFLTPTSPVAAL | 0.651 ± 0.065 |
| LFLVWSLGSGRN | 0.672 ± 0.098 |
| LFPGSHHLSRFF | 0.7587 ± 0.005 |
| LFPIYFVCNYSA | 0.508 ± 0.0075 |
| LFPRFPPPAPPL | 0.723 ± 0.099 |
| LFPRPSILKGVP | 0.657 ± 0.091 |
| LFPSSGTRLTPS | 0.667 ± 0.027 |
| LFPVTAIACRPS | 0.7266 ± 0.006 |
| LFRPNWLPLSNN | 0.634 ± 0.018 |
| LFRPSPPRPLPP | 0.651 ± 0.0071 |
| LFRRPSVVFLFV | 0.496 ± 0.062 |
| LFSFCQGCISFC | 0.715 ± 0.02 |
| LFSPPPPPIPSP | 0.73 ± 0.0078 |
| LFSRSSHGRFLT | 0.624 ± 0.041 |
| LFSSPPSLPPPL | 0.739 ± 0.036 |
| LFSVLLFFFFHL | 0.522 ± 0.069 |
| LGACGWVDWWGL | 0.774 ± 0.0083 |
| LGARGAGAPAPG | 0.7286 ± 0.0037 |
| LGCKGQLFWYIW | 0.6327 ± 0.003 |
| LGCLHRLLGVRL | 0.752 ± 0.048 |
| LGCLRLVPSPPG | 0.757 ± 0.1 |
| LGCVLGLLVFGG | 0.601 ± 0.041 |

| Sequence | protein stability index |
| --- | --- |
| LGFQSRTTRCCG | 0.6685 ± 0.0014 |
| LGFRCLGRGPDH | 0.644 ± 0.033 |
| LGFSDIMSSLVV | 0.801 ± 0.16 |
| LGGGCVRCVFMW | 0.637 ± 0.039 |
| LGGGGLRSRGAG | 0.785 ± 0.21 |
| LGGGGRWVVPGA | 0.722 ± 0.029 |
| LGGGPTGARPAM | 0.782 ± 0.078 |
| LGIEFGVADVGL | 0.786 ± 0.054 |
| LGIRFPLSNELI | 0.867 ± 0.15 |
| LGKIYPFYSILL | 0.7038 ± 0.002 |
| LGLCSFGCERCH | 0.704 ± 0.015 |
| LGLLGSLRTLSF | 0.667 ± 0.14 |
| LGLSCTIFPIGI | 0.679 ± 0.018 |
| LGLYNRFSMFGS | 0.645 ± 0.026 |
| LGQAVGAVGVEV | 0.64 ± 0.072 |
| LGRFRLSRREGG | 0.6706 ± 0.0043 |
| LGRPRRGGGVSG | 0.6998 ± 0.0012 |
| LGRRGVVRVSPR | 0.687 ± 0.052 |
| LGSNLVCFLCVS | 0.566 ± 0.053 |
| LGSRSGPLFPCV | 0.655 ± 0.015 |
| LGTGRGAEGVIG | 0.791 ± 0.071 |
| LGTILGWFSICT | 0.59 ± 0.007 |
| LGVFAVGGVRLG | 0.668 ± 0.008 |
| LGVGGLRSRGAG | 0.74 ± 0.2 |
| LGVGGRWGVPGA | 0.715 ± 0.04 |
| LGWGRGGPLSGG | 0.6937 ± 0.0018 |

| Sequence | protein stability index |
| --- | --- |
| LGWWGVWSWGRG | 0.655 ± 0.033 |
| LHDICADRSSIL | 0.739 ± 0.009 |
| LHFYASFPSPLV | 0.669 ± 0.044 |
| LHGASLCVPPSP | 0.5205 ± 0.0013 |
| LHKAATADPPRV | 0.711 ± 0.02 |
| LHKSINPSPHPP | 0.6864 ± 0.0066 |
| LHLGRLVHGGVD | 0.673 ± 0.017 |
| LHLPPPLPSTLP | 0.671 ± 0.012 |
| LHPPLALPRPPP | 0.711 ± 0.05 |
| LHPPPPPPALTP | 0.729 ± 0.068 |
| LHRTKHLRKGHK | 0.6905 ± 0.0033 |
| LIGTAPGITGFN | 0.661 ± 0.011 |
| LISADTFVHFND | 0.725 ± 0.02 |
| LISRLVSSLIHT | 0.621 ± 0.015 |
| LITRLLCSPCSQ | 0.605 ± 0.0059 |
| LKDLGKQVVTVR | 0.587 ± 0.0062 |
| LKFLFTYLGFLS | 0.532 ± 0.03 |
| LKGVVRFISGQD | 0.71735 ± 0.00052 |
| LKKDVYANNLTD | 0.673 ± 0.004 |
| LKKEFSGKEIQD | 0.743 ± 0.049 |
| LKKSYSTPFTHY | 0.69 ± 0.048 |
| LKLTFPFWNTGT | 0.728 ± 0.034 |
| LKNGDINYARFG | 0.679 ± 0.083 |
| LKQTNQHKVNTD | 0.643 ± 0.053 |
| LKRDLGGTSTRG | 0.6615 ± 0.0057 |
| LKRGKIVDRGWY | 0.641 ± 0.082 |

| Sequence | protein stability index |
| --- | --- |
| LKRMQKYIDMSS | 0.714 ± 0.11 |
| LKSYHKLKTCSS | 0.678 ± 0.061 |
| LKTLKHRLRHLE | 0.732 ± 0.034 |
| LLAFRTVSVGVL | 0.5212 ± 0.0014 |
| LLCLRGRVTLCP | 0.537 ± 0.031 |
| LLDVFFPRFFCH | 0.611 ± 0.078 |
| LLFDQTRIGMDV | 0.675 ± 0.038 |
| LLFISPPPRCLL | 0.75 ± 0.036 |
| LLFPFLSFLLPL | 0.66 ± 0.037 |
| LLFRCGARSAGG | 0.676 ± 0.022 |
| LLGLVGGVVGLA | 0.624 ± 0.01 |
| LLGPSGRAIKIQ | 0.6659 ± 0.0013 |
| LLHCPSRGFLFS | 0.851 ± 0.17 |
| LLHQSRSQVSFY | 0.717 ± 0.093 |
| LLILGTPKQDSR | 0.67 ± 0.036 |
| LLKGPDLLGRAS | 0.721 ± 0.051 |
| LLLALPSRPPPS | 0.666 ± 0.13 |
| LLLPNPTPPPPP | 0.625 ± 0.0012 |
| LLLPPPVFPPSL | 0.683 ± 0.01 |
| LLLWCRGGLLGS | 0.753 ± 0.024 |
| LLPAPLPTALPL | 0.65 ± 0.07 |
| LLPAPPRLLPSS | 0.68 ± 0.024 |
| LLPHCRPGSTAA | 0.692 ± 0.019 |
